Tests used:
E. coli = assay: Recombinant expression of DIESL in E. coli, TAG by TLC and mass spectrometry; format: cell-based; conditions: human DIESL preceded by a bacterial membrane targeting sequence, FIG. 4F
Experimental: E. coli BL21 were transformed with pET24 or pET28a plasmids expressing the indicated construct. Single clones were cultured up to a 5 ml volume in LB broth at OD 0.5 at 37° C. Cultures were then transferred to 25° C. for one hour, and then expression was induced with 0.2 mM IPTG for 16h. For SDS-PAGE and immunoblot analysis, 100 ul of culture was pelleted for 5 minutes at 3,500 g before lysis in SDS-PAGE sample buffer.
Equivalent numbers of human cells grown to confluence in 6-well plates were first washed with PBS. Cells were then incubated twice in 400 μl extraction buffer (3:2 hexane:isopropanol) for 10 minutes (35). E. coli cell pellets from 2 ml of overnight culture were incubated in 500 μl extraction buffer (only once) for 30 minutes while rotating. Extractions were pooled and dried under nitrogen stream, to a volume of ˜10 μl, and then spotted on silica gel 60 TLC plates (Sigma-Aldrich). Plates were placed in a TLC tank containing a mobile phase to separate neutral lipids (80:20:1 hexane:diethyl ether:acetic acid) or polar lipids (60:50:4:1 chloroform:methanol:water:acetic acid). […] After drying, NBD fluorescence was monitored on a Universal Hood GelDoc system (Bio-Rad) using the fluorescein channel. […] (shaking at 850 rpm) for the indicated time (final [14C] DAG concentration, 50 μM; total radioactivity per assay, 0.14 μCi). […]

[1] = tested on: HAP1 4KO cells (ΔDGAT1ΔDGAT2ΔDIESLΔTMX1); assay: Shotgun lipidomics of HAP1 4KO cells reconstituted with WT or H130A DIESL; format: cell-based, human; conditions: HAP1 4KO cells expressing active (WT) or catalytic-inactive (H130A) DIESL; FIG. 4B
Experimental: HAP1 4KO (ΔDGAT1ΔDGAT2ΔDIESLΔTMX1) cells, reconstituted with WT or H130A DIESL, were cultured in complete medium. Prior to collection, cells were cultured in serum-free IMDM for thirty minutes. Cells were then collected by trypsinization, washed twice with PBS and three million cells (in triplicate) were pelleted and stored at −80° C. For E. coli samples, 2 ml of induced culture (as described above, in triplicate) was pelleted and incubated overnight at −80° C. The following day, bacterial pellets were thawed and incubated in 25 μg/ml lysozyme in PBS for 30 minutes. Cells were pelleted, washed in PBS, and then pelleted again before resuspension in distilled water. Cells were sonicated at 60% amplitude for 5 minutes, in continuous 5-second on/25-second off cycles. The insoluble fraction was pelleted by centrifugation and the lysate (supernatant) was quantified for protein and stored at −80° C. […]
Samples were analyzed by direct infusion on a QExactive mass spectrometer (Thermo Scientific) equipped with a TriVersa NanoMate ion source (Advion Biosciences). Samples were analyzed in both positive and negative ion modes with a resolution of Rm/z=200=280000 for MS and Rm/z=200=17500 for MSMS experiments, in a single acquisition. […]
Data were analyzed by Lipotype GmbH with in-house developed lipid identification software based on LipidXplorer (41, 42). […]

B1: active DIESL: DIESL polypeptide (human transmembrane protein 68, SEQ ID NO: 1) with triacylglycerol synthase activity (protein, listed as Homo sapiens)
chain: MIDKNQTCGVGQDSVPYMICLIHILEEWFGVEQLEDYLNFANYLLWVFTPLILLILPYFTIFLLYLTIIFLHIYKRKNVLKEAYSHNLWDGARKTVATLWDGHAAVWHGYEVHGMEKIPEDGPALIIFYHGAIPIDFYYFMAKIFIHKGRTCRVVADHFVFKIPGFSLLLDVFCALHGPREKCVEILRSGHLLAISPGGVREALISDETYNIVWGHRRGFAQVAIDAKVPIIPMFTQNIREGFRSLGGTRLFRWLYEKFRYPFAPMYGGFPVKLRTYLGDPIPYDPQITAEELAEKTKNAVQALIDKHQRIPGNIMSALLERFH
TAG synthesis in E. coli (E. coli): induced de novo TAG synthesis
TAG abundance as share of the lipidome [1]: 20.5 % of the lipidome

— patent US20250011734A1, “DGAT1/2-INDEPENDENT ENZYME SYNTHESIZING STORAGE LIPIDS (DIESL)” (STICHTING HET NEDERLANDS KANKER INSTITUUT-ANTONI VAN …, priority 2021, published 2025)
